# Experimental data reported in patent publication US20120277286A1, “COMPOSITIONS AND METHODS FOR THE TREATMENT OR PREVENTION OF MITOCHONDRIAL DISEASES” (The Government of the USA, as represented by the Secretary, …, priority 2009, published 2012).
# Where a SMILES comes first, the peptide text is derived from it. The star is where a group is joined. Cbz = O=C(OCc1ccccc1)*
# How the values were obtained:
# Format in all cases: cell-based
# [1] = test system: PINK1; test: PINK1 accumulation by fractionation and immunoblotting
# Text: (§1) For PINK1 experiments, cells were fractionated using the Mitochondria Isolation Kit (Pierce), according to manufacturer's specifications with slight modifications. To isolate integral membrane proteins, membrane fractions obtained as above were carbonate extracted with 0.1M Na2CO3 fresh cold buffer and membranes were pelleted, as described in the supplemental methods. For Parkin experiments, cells were fractionated as described previously, with minor modifications described in the supplemental methods (Narendra (2008) J Cell Biol 183: 795-803). The following primary antibodies were used: anti-Parkin (PRK8) monoclonal (Santa Cruz), anti-Tom20 polyclonal (Santa Cruz), anti-cytochrome c monoclonal (BD Biosciences), anti-PINK1 polyclonal (Novus Biologicals), anti-VDAC monoclonal (Calbiochem), anti-GAPDH polyclonal (Sigma-Aldrich), anti-Tubulin monoclonal (Sigma-Aldrich), anti-V5 monoclonal (Invitrogen), anti-GFP polyclonal (Invitrogen).
# as §1, with “with slight modifications described in the supplemental methods. To isolate” for “with slight modifications. To isolate”, “minor modifications detailed in the” for “minor modifications described in the”, “supplemental methods (Narendra (2008) J Cell Biol 183: 795-803). The protease protection assay was performed as described previously (Chen (2005) J Biol Chem 280: 26185-26192). Cells were fixed and immunostained as described previously (Narendra (2008)” for “supplemental methods (Narendra (2008)”, “anti-GFP polyclonal (Invitrogen), anti-TIM23 monoclonal (BD Biosciences), and anti-Hsp60 monoclonal (Stressgen).” for “anti-GFP polyclonal (Invitrogen).”
# [2] = test system: HeLa cells; test: Mitochondrial translocation of Parkin by imaging (Examples 4 and 5); conditions: HeLa stably expressing YFP-Parkin, MG132 for 8 hrs
# Procedure: Cells were cultured in borosilicated chamber slides for imaging, 6-well plates for whole cell lysates, and 100 or 150 mm culture dish for subcellular fractionation. One day after seeding, cells were transfected with indicated constructs using Fugene HD (Roche) or Lipofectamine 2000 (Invitrogen) according to the manufacturer's guidelines.
# For immunocytochemistry, cultured cells in borosilicated chamber slides were fixed with 4% paraformaldehyde in PBS (USB) and permeabilized with the indicated detergent. After 30 min blocking with 10% BSA in PBS, cells were stained with the following primary antibodies: antiTom20 polyclonal antibody (Santa Cruz Biotechnology, Inc.) and anti-cytochrome C monoclonal antibody (BD), or anti-Tom20 monoclonal antibody (BD) and anti-GFP polyclonal antibody (Invitrogen) and then with the following secondary antibodies: goat anti-mouse/rabbit IgG antibody conjugated with Alexa Fluor 594/647, respectively. In case of live cell imaging, cells were pulsed with 600 nM TMRE for 5 min to evaluate mitochondrial membrane potential or 10 nM Mitotracker Red for 30 min to see the mitochondrial morphology. Cells were imaged using an inverted microscope (LSM510 Meta; Carl Zeiss) with 63×/1.4 oil DIC Plan Apo objective. Image contrast and brightness were adjusted in LSM image browser (Carl Zeiss).
# [3] = test system: HeLa cells; test: Parkin colocalization with mitochondria scored by confocal microscopy; conditions: for YFP-Parkin (wild type or indicated mutant) colocalization with mitochondria, % of cells: HeLa cells, 1 hour
# Procedure: (§2) Cultured cells seeded in borosilicate chamber slides (Thermo Fisher Scientific) were transfected or cotransfected with YFP-Parkin, ECFP-Parkin, mCherry-Parkin, DsRed-Mito (Clontech Laboratories, Inc.), pcDNA3.1 (Invitrogen), vMIA, and/or Drp1K38A constructs using Fugene 6 (Roche). Parkin-myc was a gift from M. Cookson (National Institutes of Health, Bethesda, Md.). Cells were fixed 12-24 hours after transfection with 4% paraformaldehyde in PBS. Cells were stained with following primary antibodies: mouse monoclonal cytochrome c (BD), rabbit polyclonal Tom20 (Santa Cruz Biotechnology, Inc.), mouse monoclonal Parkin PRK8 (Santa Cruz Biotechnology, Inc.), rabbit polyclonal PMP70 (Invitrogen), and/or mouse monoclonal TRAP1 (Abcam); and with the following secondary antibodies: mouse and/or rabbit Alexa 488, 594, and 633 (Invitrogen). For assessment of mitochondrial membrane potential, cells were pulsed with 50 nM Mito-Tracker red (Invitrogen) for 15 min, washed, and incubated for an additional 10 minutes before fixation or imaging. For assessment of cell metabolic potential, cell nuclei were stained with Hoechst 33342 (Invitrogen).
# Fixed cells and live cells in the FLIP assay were imaged using an inverted microscope (LSM510 Meta; Carl Zeiss, Inc.) with a 63×/1.4 oil DIC Plan Apo objective at 25° C. and 37° C., respectively. For the FLIP assay, a bleach region of interest (ROI) occupying approximately one eighth of the cell was positioned over a relatively mitochondria-free portion of the cytosol. Cells were alternately bleached (488 nm using a 30-mW argon laser at 75% power and 100% transmission for 150 iterations) and imaged (488 nm at 75% power and 2% transmission) for 10 minutes (—60 cycles over the length of the experiment). Two channel prebleach and postbleach images were obtained with 488 and 594 lasers to assess the position of mitochondria before and after bleaching. Circular ROIs with diameters of ˜1 and 5 μm, respectively, were placed over the mitochondria and cytosol of the target cell, and an ROI of 10 μm was placed over the control cell. Imaging of YFP-Parkin translocation in live HeLa cells was performed on a live cell imager system (UltraView LCI; PerkinElmer) at 35° C. with a 100×/1.45 α-Plan-Fluor objective.
# Image contrast and brightness were adjusted in Photoshop (Adobe). Colocalization was assessed with line scans using MetaMorph (MDS Analytical Technologies). For analysis of mitochondrial membrane potential in cells, mitochondrial voxels in each image (the cytochrome c channel threshold was ≧400 au) were segregated into Parkin-positive (the YFP-Parkin channel threshold was ≧1,100 au) or Parkin-negative subsets, and MitoTracker intensity for each voxel was measured using Volocity software (Improvision). For each cell, the mean MitoTracker intensity per voxel was calculated for the Parkin-positive and Parkin-negative subsets. The difference in mean Mito-Tracker intensity between the Parkin-positive and Parkin-negative subsets was calculated using a paired t test. Western blotting HeLa cells stably expressing YFP-Parkin, HEK293 cells, and rat cortical neurons 2 days in vitro were harvested and fractionated as described previously (Karbowski et al., J. Cell Biol. 178: 71-84, 2007). Samples were run on SDS-PAGE and immunoblotted with the following antibodies: polyclonal rabbit anti-GFP (Invitrogen), mouse monoclonal anti-Parkin (PRK8), and mouse monoclonal anti-Porin 31HL (EMD).
# (§3) Confocal microscopy of fixed samples, scoring of Parkin recruitment and Parkininduced mitophagy, and live cell imaging were performed as described previously (Narendra (2008) J Cell Biol 183: 795-803). Experiments in Mfn1/2 null cells were performed as described previously with minor modifications.
# Confocal microscopy of fixed samples, scoring of Parkin recruitment and Parkin-induced mitophagy, and live cell imageing were performed as described previously (Narendra (2008) J Cell Biol 183: 795-803). […]
# [4] = test system: HeLa cells; test: Parkin in mitochondria-rich membrane fraction, immunoblot; conditions: for translocation of YFP-Parkin variant to mitochondria-rich membrane fraction: HeLa, CCCP 1 hr, Western blotting
# Text: as §1
# as §1, with “with slight modifications described in the supplemental methods. To isolate” for “with slight modifications. To isolate”, “minor modifications detailed in the” for “minor modifications described in the”, “supplemental methods (Narendra (2008) J Cell Biol 183: 795-803). The protease protection assay was performed as described previously (Chen (2005) J Biol Chem 280: 26185-26192). Cells were fixed and immunostained as described previously (Narendra (2008)” for “supplemental methods (Narendra (2008)”, “anti-GFP polyclonal (Invitrogen), anti-TIM23 monoclonal (BD Biosciences), and anti-Hsp60 monoclonal (Stressgen).” for “anti-GFP polyclonal (Invitrogen).”
# [5] = test system: HeLa cells; test: Parkin-induced mitophagy, loss of mitochondria by immunocytochemistry; conditions: HeLa expressing YFP-Parkin variant, CCCP 24 hours
# Procedure: as §2, §3
# as §3, with “Parkin-induced” for “Parkininduced”, “imageing” for “imaging”, “modifications described in the supplemental methods (Narendra (2008) J Cell Biol 183: 795-803).” for “modifications.”
molecule,measurement,setting,value
"CC(C)C[C@@H](C=O)NC(=O)[C@H](CC(C)C)NC(=O)[C@H](CC(C)C)NC(=O)OCc1ccccc1 [MG132, reference compound] (Cbz-Leu-Leu-Leu-aldehyde)",appearance of short form of PINK1,"[1]; HeLa treated with vehicle, 50 μM MG132 for final hour",˜52 kDa band appears
same,mitochondrial translocation of Parkin,[2],no mitochondrial translocation of Parkin was detected
"C[C@@H]1C[C@@H]([C@H](O)CC2CC(=O)NC(=O)C2)C(=O)[C@@H](C)C1 [cycloheximide, reference compound]",effect on CCCP-induced Parkin recruitment to mitochondria,"[3]; HeLa cells expressing YFP-Parkin, added together with CCCP",blocked
same,"YFP-Parkin colocalization with mitochondria, % of cells","[3]; HeLa, 10 μM CCCP 1 hr+100 μM CHX (30 minutes pretreatment)",11.3±4.2%
same,effect on abundance of accumulated full length PINK1,"[1]; HeLa, after 3 hours CCCP, continuous CCCP",little effect
same,effect on depolarization-induced accumulation of endogenous PINK1,"[1]; HeLa, cycloheximide 90 minutes, CCCP 60 minutes, whole cell lysates and membrane fraction",blocked
same,effect on YFP-Parkin accumulation in mitochondrial enriched heavy membrane fraction,"[4]; HeLa YFP-Parkin, CCCP plus cycloheximide",blocked
"R275W: YFP-Parkin mutation in RING1 (protein, UniProt O60260 1-465, looked up, variant R275W, YFP fusion, YFP-Parkin mutation in RING1) E3 ubiquitin-protein ligase …: MIVFVRFNSSHGFPVEVDSDTSIFQLKEVVAKRQGVPADQLRVIFAGKELRNDWTVQNCDLDQQSIVHIVQRPWRKGQEMNATGGDDPRNAAGGCEREPQSLTRVDLSSSVLPGDSVGLAVILHTDSRKDSPPAGSPAGRSIYNSFYVYCKGPCQRVQPGKLRVQCSTCRQATLTLTQGPSCWDDVLIPNRMSGECQSPHCPGTSAEFFFKCGAHPTSDKETSVALHLIATNSRNITCITCTDVRSPVLVFQCNSRHVICLDCFHLYCVTRLNDWQFVHDPQLGYSLPCVAGCPNSLIKELHHFRILGEEQYNRYQQYGAEECVLQMGGVLCPRPGCGAGLLPEPDQRKVTCEGGNGLGCGFAFCRECKEAYHEGECSAVFEASGTTTQAYRVDERAAEQARWEAASKETIKKTTKPCPRCHVPVEKNGGCMHMKCPQPQCRLEWCWNCGCEWNRVCMGDHWFDV","YFP-Parkin (wild type or indicated mutant) colocalization with mitochondria, % of cells",[3]; 10 μM CCCP,81.7±2.1%
same,cells with no mitochondria,[5],4.0±4%
same,translocation of YFP-Parkin variant to mitochondria-rich membrane fraction,[4],increases localization in the membrane fraction
"R42P: YFP-Parkin with pathogenic UBL domain mutation (protein, UniProt O60260 1-465, looked up, variant R42P, YFP fusion, YFP-Parkin with pathogenic UBL domain mutation) E3 ubiquitin-protein ligase …: MIVFVRFNSSHGFPVEVDSDTSIFQLKEVVAKRQGVPADQLPVIFAGKELRNDWTVQNCDLDQQSIVHIVQRPWRKGQEMNATGGDDPRNAAGGCEREPQSLTRVDLSSSVLPGDSVGLAVILHTDSRKDSPPAGSPAGRSIYNSFYVYCKGPCQRVQPGKLRVQCSTCRQATLTLTQGPSCWDDVLIPNRMSGECQSPHCPGTSAEFFFKCGAHPTSDKETSVALHLIATNSRNITCITCTDVRSPVLVFQCNSRHVICLDCFHLYCVTRLNDRQFVHDPQLGYSLPCVAGCPNSLIKELHHFRILGEEQYNRYQQYGAEECVLQMGGVLCPRPGCGAGLLPEPDQRKVTCEGGNGLGCGFAFCRECKEAYHEGECSAVFEASGTTTQAYRVDERAAEQARWEAASKETIKKTTKPCPRCHVPVEKNGGCMHMKCPQPQCRLEWCWNCGCEWNRVCMGDHWFDV","YFP-Parkin (wild type or indicated mutant) colocalization with mitochondria, % of cells",[3]; 10 μM CCCP,34±5.3%
same,cells with no mitochondria,[5],22.0±2.0%
same,translocation of YFP-Parkin variant to mitochondria-rich membrane fraction,[4],No membrane translocation was detectable
"C332S: YFP-Parkin engineered mutation in conserved RING cysteine (protein, UniProt O60260 1-465, looked up, variant C332S, YFP fusion, YFP-Parkin engineered mutation in conserved RING cysteine) E3 ubiquitin-protein ligase …: MIVFVRFNSSHGFPVEVDSDTSIFQLKEVVAKRQGVPADQLRVIFAGKELRNDWTVQNCDLDQQSIVHIVQRPWRKGQEMNATGGDDPRNAAGGCEREPQSLTRVDLSSSVLPGDSVGLAVILHTDSRKDSPPAGSPAGRSIYNSFYVYCKGPCQRVQPGKLRVQCSTCRQATLTLTQGPSCWDDVLIPNRMSGECQSPHCPGTSAEFFFKCGAHPTSDKETSVALHLIATNSRNITCITCTDVRSPVLVFQCNSRHVICLDCFHLYCVTRLNDRQFVHDPQLGYSLPCVAGCPNSLIKELHHFRILGEEQYNRYQQYGAEECVLQMGGVLSPRPGCGAGLLPEPDQRKVTCEGGNGLGCGFAFCRECKEAYHEGECSAVFEASGTTTQAYRVDERAAEQARWEAASKETIKKTTKPCPRCHVPVEKNGGCMHMKCPQPQCRLEWCWNCGCEWNRVCMGDHWFDV",recruitment of mutant YFP-Parkin to mitochondria,"[3]; HeLa, 10 μM CCCP, 24 hours",Mitochondrial recruitment was seen
same,recruitment of mutant YFP-Parkin to depolarized mitochondria,"[3]; HeLa, CCCP 1 hr",completely disrupt
same,translocation of YFP-Parkin variant to mitochondria-rich membrane fraction,[4],No membrane translocation was detectable
